This note sets out measurements from article PMC9876794 (2022).

First the molecules themselves.
B1: B06 (antibody, V domains shown)
VH: QAYLQQSGAELVRPGASVKMSCKASGYTFTSYNMHWVKQTPRQGLEWIGAFYPGNGDTSYNQKFKGKATLTVDKSSSTAYMQLSSLTSEDSAVYFCARDGYPYYYAMDYWGQGTSVTVSS
VL: DIKMTQSPSSMYASLGERVTITCKASQDINSFLSWFQQKPGKSPKTLIYRANRLVDGVPSRFSGSGSGQDYSLTISSLEYEDMGIYYCLQYDEFPWTFGGGTKLEIK
B2: A23 (antibody, V domains shown)
VH: QAYLQQSGAELVRPGASVKMSCKASGYTFTSYNMHWVKQTPRQGLEWIGAIYPGNGDTSYNQKFKDKATLTVDKSSSTAYMQLSSLTSGDSAVYFCARDYYGCSYGYFDVWGTGTTVTVSS
VL: DIQMTQTTSSLSASLGDRVTISCSASQGISNYLNWYQQKPDGTVKLLIYYTSSLHSGVPSRFSGSGSGTDYSLTISNLEPEDIATYYCQQYSKLPYTFGGGTKLEIK
B3: B46 (antibody, V domains shown)
VH: QVQLQQPGAELVKPGASVKVSCKASGYTFTSYWMHWVKQRPGQGLEWIGRIHPSDSDTNYNQNFKGKATLTVDKSSSTAYMQLSSLTSEDSAVYYCALDGYYGIWWGQGTLVTVSA
VL: DIVMTQSQKFMSTSVGDRVSVTCKASQNVGTNVAWYQQKPGQSPKALIYSASYRYSGVPDRFTGSGSGTDFTLTISNVQSEDLAEYFCQQCNSYPLTFGGGTKLEIK

The assay concerns the target SARS-CoV-2 spike RBD (WT) (Severe acute respiratory syndrome …, UniProt P0DTC2). Nature of the assay: BLI. A general note: In BLI a coated tip is dipped into the sample, and binding shifts an interference pattern.
For orientation: Kd means a measure of binding affinity in units of concentration. A lower Kd goes with higher affinity. As for B1, the Kd turned out to be 110 nM.
The figure for B2 is 850 nM.
The result for B3 reads 282 nM.
